The source of these data is patent US20050164185A1 (YEDA RESEARCH AND DEVELOPMENT CO LTD AT WEIZMANN INSTITUTE …, published 2005).

To fix the notation:
B2: interferon beta (wild type, glycosylated, produced in CHO) (ligand, human, UniProt P01574 22-187, looked up)
chain: MSYNLLGFLQRSSNFQCQKLLWQLNGRLEYCLKDRMNFDIPEEIKQLQQFQKEDAALTIYEMLQNIFAIFRQDSSSTGWNETIVENLLANVYHQINHLKTVLEEKLEKEDFTRGKLMSSLHLKRYYGRILHYLKAKEYSHCAWTIVRVEILRNFYFINRLTGYLRN
modifications: glycosylated (site not stated)
notes: also called IFNβ; IFN-β

Experiment [1] has as its target B2. Description: RifS, IFNAR2-EC immobilised through antibodies, 500 mM NaCl, pH 7.4.
The target of experiment [2] is B2. Description: RifS, IFNAR2-EC immobilised through antibodies.
In experiment [3] the target is T1, wild type IFNAR2-EC (extracellular domain of human IFNAR2) (human, UniProt P48551 28-237).
T1 construct: Expressed in E. coli, non-glycosylated; also called wt; WT protein
T1 sequence: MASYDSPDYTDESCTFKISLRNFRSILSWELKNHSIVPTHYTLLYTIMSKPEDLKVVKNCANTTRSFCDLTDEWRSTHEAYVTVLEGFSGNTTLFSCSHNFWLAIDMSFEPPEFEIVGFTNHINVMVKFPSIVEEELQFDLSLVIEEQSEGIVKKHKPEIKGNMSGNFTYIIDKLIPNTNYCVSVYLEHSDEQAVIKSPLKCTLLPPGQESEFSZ
The experiment is described as follows: RifS, IFNAR2-EC immobilised through antibodies, 500 mM NaCl, pH 7.4.

For experiment [4], the target named is B2. The experiment is described as follows: cell-based or functional assay.

B1: IFNAR2 EC H78A/N100A mutant (receptor)
chain: MASYDSPDYTDESCTFKISLRNFRSILSWELKNHSIVPTHYTLLYTIMSKPEDLKVVKNCANTTRSFCDLTDEWRSTAEAYVTVLEGFSGNTTLFSCSHAFWLAIDMSFEPPEFEIVGFTNHINVMVKFPSIVEEELQFDLSLVIEEQSEGIVKKHKPEIKGNMSGNFTYIIDKLIPNTNYCVSVYLEHSDEQAVIKSPLKCTLLPPGQESEFSZ
notes: also called R2 H78A/N100A; MIFNAR2 EC
B1: the Kd – broadly, a measure of binding affinity in units of concentration – in experiment [1] is approximately 0.03 nM. The “fold higher affinity than wild type” value in experiment [2] is approximately 100 fold.

For the molecule B2, in experiment [3], the Kd is approximately 3 nM.

B3: IFNAR2 EC H78A/N100D mutant (receptor)
chain: MASYDSPDYTDESCTFKISLRNFRSILSWELKNHSIVPTHYTLLYTIMSKPEDLKVVKNCANTTRSFCDLTDEWRSTAEAYVTVLEGFSGNTTLFSCSHDFWLAIDMSFEPPEFEIVGFTNHINVMVKFPSIVEEELQFDLSLVIEEQSEGIVKKHKPEIKGNMSGNFTYIIDKLIPNTNYCVSVYLEHSDEQAVIKSPLKCTLLPPGQESEFSZ
As for B3, the “IC50 (read off the curve)” value in experiment [4] is approximately 0.4 nM.
